Experimental data as given in the nanobody polyreactivity screen of Harvey et al. (2022).

Assay: yeast display, Sf9 membrane polyspecificity reagent, FACS + sequencing; frameworks hold sequencing errors
Outline: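 Synthetic nanobody libraries on Saccharomyces cerevisiae BJ5465 were galactose-induced for 36–48 hours, stained 1 hour at 4 °C with 10% biotinylated, detergent-solubilized Sf9 membrane reagent and enriched on streptavidin microbeads. FACS then separated cells into low and high (top ~1%) gates by anti-HA (expression) and streptavidin (reagent binding) fluorescence. Genes were colony-PCR amplified, MiSeq 2 × 250 sequenced and CDR-length filtered. A clone's polyreactivity label is that of its gate of origin.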

| Sequence | polyreactivity (PSR sort gate) |
| --- | --- |
| QVQLVESGGGLVQAGGSLRLSCAASGGTFVSNAMGWYRHAPGKERELVAAITTGGTTYADSVKGRFTISRDNAKNSVYLQMKSLKPEDSAVYYCAADIYLLILGRSILQFDYWGQGTQVTVSS | low polyreactivity |
| QVQLQESGGGLVQAGGCLRLSCAASGTISTAYQMGWYRQAPGKEREFVAAIGYGAITNYADSVKGRFTISRDNAKNTVYLQMNSLKPEDTAVYYCAARRYVAGRGAYDYWGQGTQVTLSS | low polyreactivity |
| QVQLVESGGGVVQAGGSLRLSCAASGRIFKSYAMGWYRPAPGKERELVASISYTGGSTYYAASVKGRFTISRDNAKNTVYLQMNRLKPEDTAVYDCAAKRVRSAGSYGYWGQGTQVTVSS | low polyreactivity |
| QVQLVESGGGLVQAGGSLRLSCAASGSTFDSYAMGRYRQAPGKERELVAAITNGGSTYYADSVKGRFTISRDNAKNTVYLQMHSLKPEDTAGYYCATDDYLLDNLYDYWGQGTQVTVSS | low polyreactivity |
| QVQLVESGGGLVQAGGSLRLSCAASGITFITYVMGWYRQAPGKERELVAAISLRGGRTSYADSVKGRFTISRDNAKNTVYLQMNSLKPEDTAVYYCAARAYYTRYDYWGQGTQVTVSS | high polyreactivity |
| QVQLVESGGGLVQAGGSLRLSCAASGSTFYHYAMGWYRQAPGKERELVAAISSSGGRTYYADSVKGRFTISRDNAKNTVYLQMNSLKPEDTAVYYCAARAKTSGSIEDYWGQGTQVTVSS | high polyreactivity |
| QVQLVESGGGLVQAGGSLRLSCAASGSIFYGNTMGWYRQAPGKERELVAAITWSGDSTYYADSVKGRFTISRDIAKNTVYLQMISLKPEDTALYYCNADQTGVYYAGEGNHWGQGTQVSVSS | low polyreactivity |
| QVQLVESGGGLVQAGGSLRLSCAASGSIFVYNAMGWYRQATGKEREMVAVINKSGDTTYYADSVKGRFTISRDNAKNTVYLQMNSLKPEDTAVYYCNASGEVLAAVVSYDYWGQGTQVTVSS | low polyreactivity |
| QVQLVESGGGLVQAGGSLRLSCAASGRTFLRYAMGWYRQAPRKERELVAAISVSGASTNYADSVKGRFTISRDYAKNTVYLQMNSLKPEDTAVYYCAARVADYDGVPLYRHGDYWGQGTQVTVSS | low polyreactivity |
| QDQLVESGGGLVQAGGSLRLSCAASGRTFYIYAMGWYRQATGKERELVAAISSYTSTKYADSVKGRFTISRDNAKNTVYLQMICLKPEDTAVYYCASGYPVRYRGYLNWSYYAYDYWGQGTQVTVSS | low polyreactivity |
| QVQLVESGGGLVQAGGSLRLSCAASGRTFNYYAMGWYRQAPGKERELVAAISWSGTPTYYADSVKGRFTISRDNAKNTVYLQMNSLKPEDTAVYYCAAYLVSYPRGNYIRYDYWGQGTQVTVSS | low polyreactivity |
| QVQLVESGGGLVQAGGSLRLSCAASGFTFYYYAMGWYRQAPGKERELVAAISRSGGSTYYADSVKGRFTISRDNAKNTVYLQMNSLKPEDTAVDYCNKGSRWLRGLDSWGQGTQVTVSS | high polyreactivity |
| QVQLVESGGGLVQAGGSLRLSCAASGFTFDWYAMGWYRQAPGKERELVAAMYYADSVKGRFTISRDNAKNTVYLQMNSLKPEDTAVYYCNAGGYFFPTVYHYGYWGQGTQVTVSS | low polyreactivity |
| QVQLVESGGGLVQAGGSLRLSCAASGRTFHEYAMGWYRQAPGTERELVADISDGGSTNYADSVKGRFTISRDNAKNTVYLQMNSLKPEDTAVYYCNTDVPSAQYDYWGQGTQVTVSS | low polyreactivity |
| QVQLVDSGGGLVQAGGSLLLSCAASGSISYQNAMGWYRQAPGKERELVAANSGDGDSTYYADSVKGRFTISRDNAKNTVYLQMNRLKPEDTAVYYCAAEPNVYFSVFVLFTSDYWGQGTLVTVSS | low polyreactivity |
| QVQLVESGGGLVQAGGSLRLSCAGSGRTFWANTMGWYIQAPGKEREFVAAISGRDVSTYYADSVKGRFTISRDNAKNTVFLQMNSLKPEDTAVYYCAAQWQYLGHMGYWGQGTQVTVSS | low polyreactivity |
| QVQLEESGGGLVQAGGSLRLSCAASGILRDNAMGWYRQAPGKERELVATINGDGSTYADSVKGRFTISRDNAKNTVYLQMNSLKPEDTAVYYCAAPFTTTFDYWGQGTQVTVSS | low polyreactivity |
| QVQLVESGGGLVQAGGSLRLSCAASGSIFRRNSMGWYRQAPGKERELVAAITRRGGSTYYADSVKGRFTISRDNAKNTVYLQMNSLKPEDTAVYYCAADPPDGFYYTWDYDYWGQGTQVTVSS | low polyreactivity |
| QVQLVESGGGLVQAGGSLRLSCAASGSIFPLYVMGWYRQAPGKERELVAAISSAADTYYADSVKGRFTISRDNAKNTVYLQMNSLKPEDTAVYYCAAAVLYWVGYGYWGQGTQVTVSS | low polyreactivity |
| QVQLVESGGGLVQAGGSLRLSCAASGFIFQPYAMGWYRQAPVKERELVAAITSRGGRTYYADSVKGRFTISRDNAKNTVYLQMNSLKPEDTAVYYCNADIYASEYYYWGQGTQVTVSS | low polyreactivity |
| QVQLVESGGGLVQAGGSLRLSFAASGFNFEWYTMGWYRQAPGKEMELVADISGDGSTYYAVSVKGRFTISRDNAKNTVYLQMNSLKPEDTAVYYCAASFWGIAMGYWGQGTQVTVSS | high polyreactivity |

| Sequence | polyreactivity (PSR sort gate) |
| --- | --- |
| QVQHVESGGGLVQAGGSLRLSCAASGSTFYRYAMGWYRQAPGNERELVAAISASGGSTYYADSVKGRFTISRDNAKNTVYLQMNSLKPEDTAVYYCNRDRRYRNDYWGQGTQVTVSS | high polyreactivity |
| QVQLVESGGGLVQAGGSLRLSCAASGSIFSWYAMGWYRQAPGKERELVAAISNAGRTYYADSVKGRFTISRDNAKNTVYLQMNSLKPEDTAVYYCAAAGPRQGNYGGYEYWGQGTQVTVSS | high polyreactivity |
| QVQLVESSGGLVQAGGSLRLSCAASGITFYYYAMGWYRQAPGKERELVAVITGNGGRTYYADSVKGRFTISRDNAKNTVYLQMNSLKPEDTAVYYCAALYDGIYDSWGQGTQVTVSS | high polyreactivity |
| QVQLVESAGGLVQAGGSLRLSCAASGRNFYRNAMGWYRQAPGKERELVAAISYSGGSTYYADSVKGRFTISRDNAKNTVYLQMNSLKPEDTAVYYFAAAGDRWGNYWGQGTLVTVSS | high polyreactivity |
| QVQLVESGGGLVQAGGSLRLSCAASGINFGQNAMGWYRQAPGKERELVAAITISVGSTYYADSVKGRFTISRDNAKNTVYLQMNSLKPEDTAVYYCAARRVTWKVIARGYRYGYWGQGTQVTVTS | low polyreactivity |
| QVQLVESGGGLVQAGGSLRLSCAASGRTFTYYAMGWYRQAPGKERELVARISSSGSTNYADSVKGRFTISRDNAKNTVYLQMNSLKPEDTAVYYCAARYWRGPRYDYWGQGTQVTVSS | high polyreactivity |
| QVQLVESGGGLVQAGGSLRLSCAASGSIFSWYAMGWYRQAPGKERELVAAISGITGSTYYADSVKGRFTISRDNAKNTVYLQMNSLKPEDTAVYYCRALAGYASGMDYWGQGTQVTVSS | high polyreactivity |
| QVQLVESGGGLVQAGGSLRLSCAASGFTFSVYAMGWYRQAPGKERELVAVITKRGGSTYYADSVKGRFTISRDNAKNTVYLQMNSLKPEDTAVYYCNAYLQGKIFPYGYWGQGTQVTVSS | high polyreactivity |
| QVQLVESRGGLVQAGGSLRLSCAASGMTFSDYPMGLYRQAPGKEREFVSAITSGGRTNYADSVKGRFTISRDNAKNTVYLQMNSLKPEDTAVYYCAAVYTYVYYYHYPYYYWGQGTQVTVSS | low polyreactivity |
| QVQLVESGGALVQAGGSLRLSCAASGSIFYTNAMGWYRQAPGKERELVAAIRWSGGRTYYADSVKGRFTISRDNAKNTVYLQMNSLKPEDTAVYYCNKVPRTPIPYKYGDWGQGTHVTVSS | high polyreactivity |
| QVQLVESGGGLVQAGGSLRLSCAASGRIFGVYVMGWYRQAPGKEREFVAAITWSGGRTYYADSVKGRFTISRDNAKNTVYLQMNSLKPEDTAVYYCAARRRYEYDYWGQGTQVTVSS | high polyreactivity |
| QVQLVESGGGLVQAGGSLRLSCAASGSIFKIYAMGWYRQAPGKERELVAAITINGGSTYYADSVKGRFTISRDNAKNTVYLLMNSLKPEDTAVYYCAADFFHRAGWYFAYGHWGQGTQVTVSS | low polyreactivity |
| QVQLVESGGGLVQAGGSLRLSCAASGSTFYRNAMGWYRQAPGKERELVAAISGSDGSTYYADSVKGRFTISRDNAKNTVYLQMNSLKPEDTAVYYCNARRWWVIRDYWGQGTQVTVSS | high polyreactivity |
| QVQLVESGGGLVQAGGSLRLSCAASGSTFGKYTMGWYRQAPGKERELVAAISWSGGNTYYADSVKGRFTISRDNAKNTVYLQMNSLKPEDTAVYYCAAEREAYNTWFDYWGQGTQVTVSS | high polyreactivity |
| QDQLVESGGGLVQAGGSLRLSCAPSGSTFGDYDMGGYRPAPGKERELVAAISNGGSTYYAASVKGRFTISRDNAKNTVYLQRNSLKPEDTADFYCNADNVEIRSTYEYGRYLYGYWGQGTQVTVSS | low polyreactivity |
| QVQLVESGGGLVQAGGSLRLSCAASGSTFTGNAMGWYRQAPGKERELVAAISRSGGSTFYADSVKGRFTISRDNAKYTVYLQMNSLKAEDTAVYYCATRYVVDMDYWGQGTQVTVSW | high polyreactivity |
| QVQLVESGGGLVQAGGSLRLSCAASGRTFRYYVMGWYIQAPAKERELVARISYSAGSTYYADSVKGRFTISRDNAKKTVYFQMNSLKPEDTAVDYCNAGGNFKDYGHYYWGQCTQVTVSS | high polyreactivity |
| QVQLVESGGGLVQAGGSLRLSCAASGRIFPYYAMGWYRQAPGKERELVAGISYSGTSTYYADSVKGRFTISRDNAKNTVYLQMNSLKPEDTAVYYCATTSWRYGYDYWGQGTQVTVSS | high polyreactivity |
| QVQLVESGGRLVQARGSLRLSCAASGSIFATYVMGWYRQAPGKERELVATITYSGDSTYYADSVKGRFTISRDNAKNTVYLQMNSVKPEDTAVYYCAADYFTLYPYRGFDYWGQGTQVTVSS | low polyreactivity |
| QVQLVESGGGLVQAGGSLRLSCAASGSIFSAYAMGWYRQAPGKEREFVASITWSGGSTYYADSVKGRFTISRDNAKNTVYLQMNSLKPEDTAVYYCAAVYVTWYNNYEYWGQGTQVTVSS | high polyreactivity |
